Here are results for two substances from paper PMC11409674, “Raffinocyclicin is a novel plasmid-encoded circular bacteriocin produced by Lactococcus raffinolactis with broad-spectrum activity against many gram-positive food pathogens” (Applied and environmental microbiology, 2024).

One data set has as its target T1, proteinase K (Parengyodontium album, UniProt P06873).
T1 construct: purchased Sigma-Aldrich, St Louis, USA
Description: residual antimicrobial activity after proteinase K treatment. The data set is classed as in vitro ADME. The conditions noted are these: proteinase K 1 mg/mL, 37 °C, 4 h.

The subject of a further data set is proteases. Further details: method as in 4 sources, ref 33 = [33]; PMID 21948835; doi:10.1128/AEM.06348-11; 33 Masuda Y Ono H Kitagawa H Ito H Mu F Sawa N Zendo T Sonomoto K Identification and characterization of leucocyclicin Q, a novel cyclic bacteriocin produced by Leuconostoc mesenteroides TK41401 Appl ||| ref 27 = [27]; PMID 21057028; doi:10.1128/AEM.01173-10; 27 Borrero J Brede DA Skaugen M Diep DB Herranz C Nes IF Cintas LM Hernández PE Characterization of garvicin ML, a novel circular bacteriocin produced by Lactococcus garvieae DCC43, isolated from mall ||| ref 30 = [30]; PMID 29177092; doi:10.1099/mgen.0.000134; 30 van Heel AJ Montalban-Lopez M Oliveau Q Kuipers OP Genome-guided identification of novel head-to-tail cyclized antimicrobial peptides, exemplified by the discovery of pumilarin Microb Genom 2017 3 ||| ref 29 = [29]; PMID 18552180; doi:10.1128/AEM.00817-08; 29 Martin-Visscher LA van Belkum MJ Garneau-Tsodikova S Whittal RM Zheng J McMullen LM Vederas JC Isolation and characterization of carnocyclin A, a novel circular bacteriocin produced by Carnobacteri. The conditions noted are these: cited from earlier work.

T1 sequence (P06873 106-384): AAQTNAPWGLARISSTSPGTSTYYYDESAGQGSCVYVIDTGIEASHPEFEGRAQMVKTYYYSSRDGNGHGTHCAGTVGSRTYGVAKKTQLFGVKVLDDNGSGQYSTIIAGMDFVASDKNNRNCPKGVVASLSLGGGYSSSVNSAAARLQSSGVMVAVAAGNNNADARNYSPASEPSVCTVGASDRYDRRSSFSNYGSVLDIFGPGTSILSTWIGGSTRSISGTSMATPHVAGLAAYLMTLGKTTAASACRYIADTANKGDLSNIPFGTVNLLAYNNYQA

Turning to raffinocyclicin, the “loss of activity when treated with proteinase K” value with proteinase K (indicator L. lactis HP) is recorded as “over 90%”. Besides, the Phenotype entry in the data set with proteinase K (40 µL spotted around chloroform-inactivated producer spot, overlay L. lactis HP, 30 °C, 24 h) was “S”. In the data set with proteinase K (40 µL spotted around chloroform-inactivated producer spot, overlay L. lactis HP, 30 °C, 24 h, true halo treated/control (10 mM PBS pH 7.4) × 100), this substance yielded a Residual activity of 7%.
Turning to “carnocyclin A (LVAYGIAQGTAEKVVSLINAGLTVGSIISILGGVTVGLSGVFTAVKAAIAKQGIKKAIQL; UniProt B2MVM5 5-64, looked up) [circular bacteriocin]”, the “antimicrobial activity after protease treatment” value in the data set with proteases is recorded as “completely abolished”.
